Literature values as cited in patent publication US8747397B2, “Cryotreatment pellet” (CPSI Holdings LLC, priority 2009, dated 2014).

System: prostate cancer cell

B1: TNF-Related Apoptosis-Inducing Ligand (protein, UniProt P50591 1-281, looked up)
Tumor necrosis factor ligand …: MAMMEVQGGPSLGQTCVLIVIFTVLLQSLCVAVTYVYFTNELKQMQDKYSKSGIACFLKEDDSYWDPNDEESMNSPCWQVKWQLRQLVRKMILRTSEETISTVQEKQQNISPLVRERGPQRVAAHITGTRGRSNTLSSPNSKNEKALGRKINSWESSRSGHSFLSNLHLRNGELVIHEKGFYYIYSQTYFRFQEEIKENTKNDKQMVQYIYKYTSYPDPILLMKSARNSCWSKDAEYGLYSIYQGGIFELKENDRIFVSVTNEHLIDMDHEASFFGAFLVG
notes: cytotoxic agent, apoptosis-inducing ligand applied in combination with freezing
Q: Which cell death (sub-lethal dose applied in vitro in combination with freezing) does the source give for B1 here?
A: complete prostate cancer cell death occurs

Q: What about the critical death temperature (sub-lethal dose in combination with freezing, reduced from −40° C. (freezing alone)) of the same molecule?
A: −10 °C
